Assay results from publication PMC9771723 (iScience, 2022).

Target: the molecule itself
Assay: cross-linking

B1: M2(1-46) of influenza A/Hong Kong/8/68 (H3N2) in nanodiscs (domain or fragment)
chain: MSLLTEVETPIRNEWGCRCNDSSDPLVVAASIIGILHLILWILDRL
  stoichiometry N: 4
